Assay [1] addresses human EGF receptor on CHO-hEGFr cells (human) (UniProt P00533). As to the kind of experiment: flow cytometry on CHO-hEGFr cells; 3.9 is the secondary antibody alone.
Assay [2] deals with human IGF1 receptor on 3T3-hIGF1r cells (human) (UniProt P08069). As to the kind of experiment: flow cytometry on 3T3-hIGF1r cells; 5.7 is the secondary antibody alone. For orientation: A flow cytometer gives signals particle by particle.

The source of these data is US6896881.

UniProt P08069, sequence (P08069 31-1367): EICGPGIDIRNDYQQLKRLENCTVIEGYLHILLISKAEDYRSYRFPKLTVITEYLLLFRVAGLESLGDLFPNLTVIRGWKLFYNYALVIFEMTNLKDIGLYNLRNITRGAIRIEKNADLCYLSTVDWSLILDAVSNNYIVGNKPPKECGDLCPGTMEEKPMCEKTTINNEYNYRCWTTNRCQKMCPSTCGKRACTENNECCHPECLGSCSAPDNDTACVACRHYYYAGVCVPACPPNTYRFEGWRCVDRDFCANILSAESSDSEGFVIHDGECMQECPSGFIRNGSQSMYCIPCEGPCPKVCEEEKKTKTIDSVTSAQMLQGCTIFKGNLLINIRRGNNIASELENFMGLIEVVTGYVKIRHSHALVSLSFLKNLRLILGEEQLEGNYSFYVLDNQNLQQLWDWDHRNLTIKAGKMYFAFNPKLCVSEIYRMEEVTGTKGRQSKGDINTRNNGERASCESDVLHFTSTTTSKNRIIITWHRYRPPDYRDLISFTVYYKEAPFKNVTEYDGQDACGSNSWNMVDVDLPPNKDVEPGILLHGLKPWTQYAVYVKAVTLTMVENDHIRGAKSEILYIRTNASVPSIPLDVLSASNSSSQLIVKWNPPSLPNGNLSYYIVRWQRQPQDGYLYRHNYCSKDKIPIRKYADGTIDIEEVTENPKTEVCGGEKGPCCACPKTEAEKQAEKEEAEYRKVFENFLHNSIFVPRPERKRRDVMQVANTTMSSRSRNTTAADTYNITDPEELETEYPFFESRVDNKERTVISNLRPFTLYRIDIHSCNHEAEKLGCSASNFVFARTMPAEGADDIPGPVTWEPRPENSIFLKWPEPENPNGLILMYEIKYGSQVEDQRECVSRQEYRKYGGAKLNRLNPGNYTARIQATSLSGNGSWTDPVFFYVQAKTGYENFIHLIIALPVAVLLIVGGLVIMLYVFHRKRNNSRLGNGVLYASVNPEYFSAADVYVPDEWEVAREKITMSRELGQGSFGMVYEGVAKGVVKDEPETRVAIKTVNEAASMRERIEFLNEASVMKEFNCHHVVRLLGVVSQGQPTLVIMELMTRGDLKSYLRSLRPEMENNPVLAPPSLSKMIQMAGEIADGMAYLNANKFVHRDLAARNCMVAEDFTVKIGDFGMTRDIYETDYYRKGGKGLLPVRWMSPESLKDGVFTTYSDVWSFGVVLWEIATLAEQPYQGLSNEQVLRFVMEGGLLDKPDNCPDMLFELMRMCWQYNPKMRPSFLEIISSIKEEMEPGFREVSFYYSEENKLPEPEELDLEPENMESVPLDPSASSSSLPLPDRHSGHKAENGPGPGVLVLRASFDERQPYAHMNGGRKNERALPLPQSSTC

For the substance “monoclonal anti-hEGFr antibody clone 528 (Santa Cruz, sc-120)”, in assay [1], the mean fluorescence turned out to be 466. For the substance “monoclonal anti-hIGF1r antibody clone 33255.111 (R&D Systems, MAB391)”, the mean fluorescence in assay [2] came to 251.
